{"source": "the RNAGym collection of RNA variant scans (doi:10.1093/nar/gkz1192)", "parents": {"B1": {"name": "CPEB3 Ribozyme (parent)", "chain": "UAACAGGGGGCCACAGCAGAAGCGUUCACGUCGCAGCCCCUGUCAGAUUCUGGUGAAUCUGCGAAUUCUGCUGUAUAUCUC"}}}
{"variants_of": "B1", "assay": "self-cleavage, relative activity (ratio to wild type); higher = more cleavage; in vitro, sequencing", "how_it_was_run": "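After error-prone PCR and barcoding, CPEB3 ribozyme mutant libraries were transcribed with T7 RNA polymerase at 37°C for 5 hours, then given 15 min with DNase I before an EDTA stop, and they cleaved during both steps. Reverse transcription with template switching preceded Illumina sequencing. Relative activity divides a variant's cleaved/total read fraction by the unmutated ribozyme's. At least 5 reads were required per variant, and three batches were averaged.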"}
{"variant": "UAACAGGGGGCCCCAGCAGAAGCGUUCACGUCGCAGCCCCUGUCACAUUCUGGUGAAUCUGCGAAUUCUGCUGUAUAUCUC", "self-cleavage": 0.18}
{"variant": "UAACAGGGGGCCCCAGCAGAAGCGUUCACGUCGCAGCCCCUGUCAGAUUAUGGUGAAUCUGCGAAUUCUGCUGUAUAUCUC", "self-cleavage": 0.87}
{"variant": "UAACAGGGGGCCCCAGCAGAAGCGUUCAGGUCGCAGCCCCUGUCAGAUUCUGGUGAAUCUGCGAAUUCUGCUGUAUAUCUC", "self-cleavage": 0.3}
{"variant": "UAACAGGGGGCCCCAGCAGAAGCGUUCACGUCGCAGCCCCUGUCAGAUUCUGGUGAAUCUGCGAAUUUUGCUGUAUAUCUC", "self-cleavage": 1.07}
{"variant": "UAACAGGGGGCCCCAGCAGAAGCGUUCACGUCGCAGCCCCUGUCAGAUUCUGGUGAAUCUGCGAAUUCUGUUGUAUAUCUC", "self-cleavage": 0.33}
{"variant": "UAACAGGGGGCCCCAGCAGAAGCGUUCACUUCGCAGCCCCUGUCAGAUUCUGGUGAAUCUGCGAAUUCUGCUGUAUAUCUC", "self-cleavage": 0.12}
{"variant": "UAACAGGGGGCCCCAGCAGAAGCGUUCACAUCGCAGCCCCUGUCAGAUUCUGGUGAAUCUGCGAAUUCUGCUGUAUAUCUC", "self-cleavage": 0.25}
{"variant": "UAACAGGGGGCCCCAGCAGAAGCGUUCACGUCGCAGCCCCUGUCAGAUUCUGGUGAAUCUGCGAAUUCUGCUGUAUAUUUC", "self-cleavage": 1.11}
{"variant": "UAACAGGGGGCCCCAGCAGAAGCGUUCACGUCGCAGCCCCUGUCAGAUUCUGGUGAAUCUGCGUAUUCUGCUGUAUAUCUC", "self-cleavage": 0.4}
{"variant": "UAACAGGGGGCCCCAGCAGAAGCGUUCACGUCGCAGCCCCUGUCAGAUUCUGGUGAAUCUGCGGAUUCUGCUGUAUAUCUC", "self-cleavage": 0.93}
{"variant": "UAACAGGGGGCCCCAGCAGAAACGUUCACGUCGCAGCCCCUGUCAGAUUCUGGUGAAUCUGCGAAUUCUGCUGUAUAUCUC", "self-cleavage": 0.19}
{"variant": "UAACAGGGGGCCCCAGUAGAAGCGUUCACGUCGCAGCCCCUGUCAGAUUCUGGUGAAUCUGCGAAUUCUGCUGUAUAUCUC", "self-cleavage": 0.53}
{"variant": "UAACAGGGGGCCCCAGCAGAAGCGUUCACGUCGCAGCCCCUGUCAGAUUCUGGUGAAUCUGCGAAUUCUGCUCUAUAUCUC", "self-cleavage": 0.48}
{"variant": "UAACAGGGGGCCCCAGCAGAAGCGUUCACGUCGCAGCCCCUGUCAGAUUCUGGUGAAUCUGCUAAUUCUGCUGUAUAUCUC", "self-cleavage": 0.97}
{"variant": "UAACAGGGGGCCCCAGCAGAAGCGUUCACGUAGCAGCCCCUGUCAGAUUCUGGUGAAUCUGCGAAUUCUGCUGUAUAUCUC", "self-cleavage": 0.29}
{"variant": "UAACAGGGGGCCCCAGCAGAAGCGUUCACGUCGCAGCCCCUGUCAGAUUCUGGUGAAUCUGCGAAUUCUACUGUAUAUCUC", "self-cleavage": 0.44}
{"variant": "UAACAGGGGGCCCCAGCAGAAGCGUUCACGUCGCAGCCCCUGUUAGAUUCUGGUGAAUCUGCGAAUUCUGCUGUAUAUCUC", "self-cleavage": 0.59}
{"variant": "UAACAGGGGGCCCCAGCAGAAGCGUUCACGUCGCAGCCCCUGUAAGAUUCUGGUGAAUCUGCGAAUUCUGCUGUAUAUCUC", "self-cleavage": 0.42}
{"variant": "UAACAGGGGGCCCCAGCAGAAGCGUUCACGUCGCAGCCCCUGUCAGAUUCUGGUGAGUCUGCGAAUUCUGCUGUAUAUCUC", "self-cleavage": 1.04}
{"variant": "UAACAGGGGGCCCCAGCAGAAGCGUUCACGUCGCAGCCCCUGUCAGAUUCUGGUGAUUCUGCGAAUUCUGCUGUAUAUCUC", "self-cleavage": 0.28}
{"variant": "UAACAGGGGGCCCCAGCAGAAGCGUUCACGUCGCAGCCCCUGUCAGAUUCUGGUGAAUCUGCGAGUUCUGCUGUAUAUCUC", "self-cleavage": 0.32}
{"variant": "UAACAGGGGGCCCCAGCAGAAGCGUUCACGUCGCAACCCCUGUCAGAUUCUGGUGAAUCUGCGAAUUCUGCUGUAUAUCUC", "self-cleavage": 0.26}
{"variant": "UAACAGGGGGCCCCAGCAGAAGCGUUCACGUCGCACCCCCUGUCAGAUUCUGGUGAAUCUGCGAAUUCUGCUGUAUAUCUC", "self-cleavage": 0.35}
{"variant": "UAACAGGGGGCCCCAGCAGAAGCGUUCACGUCGCAGCCCCUGUCAGAUUCUGGUGAAUCUGCGAAUUCUGCUGUGUAUCUC", "self-cleavage": 1.12}
{"variant": "UAACAGGGGGCCCCAGCAGAAGCGUUCACGUCGCAGCCCCUGUCAGAUUCUGGUGAAUCUGCGAAUUCUGCUGUUUAUCUC", "self-cleavage": 0.99}
{"variant": "UAACAGGGGGCCCCAGCAGAAGCGUUCACGUCGCAGCCCCUGUCAGGUUCUGGUGAAUCUGCGAAUUCUGCUGUAUAUCUC", "self-cleavage": 1.05}
{"variant": "UAACAGGGGGCCCCAGCAGAAGCGUUCACGUCGCAGCCCCUGUCAGCUUCUGGUGAAUCUGCGAAUUCUGCUGUAUAUCUC", "self-cleavage": 0.34}
{"variant": "UAACAGGGGGCCCCAGCAGAAGCGUUCACGUCGCAGCACCUGUCAGAUUCUGGUGAAUCUGCGAAUUCUGCUGUAUAUCUC", "self-cleavage": 0.33}
{"variant": "UAACAGGGGGCCCCAGCAGAAGCGUUCACGUCGCAGCUCCUGUCAGAUUCUGGUGAAUCUGCGAAUUCUGCUGUAUAUCUC", "self-cleavage": 0.93}
{"variant": "UAACAGGGGGCCCCAGCAGAAGCGUUCACGUCGCAGCCCAUGUCAGAUUCUGGUGAAUCUGCGAAUUCUGCUGUAUAUCUC", "self-cleavage": 0.26}
{"variant": "UAACAGGGGGCCCCAGCAGAAGCGUUCACGUCGCAGCCCCUGUCAGAUUCUGGUGAAUCUGCGAAUUCUGCUGUAUGUCUC", "self-cleavage": 1.12}
{"variant": "UAACAGGGGGCCCCAGCAGAAGCGUUCACGUCGCAGCCCCUGUCAGAUUCUGGUGUAUCUGCGAAUUCUGCUGUAUAUCUC", "self-cleavage": 0.48}
{"variant": "UAACAGGGGGCCCCAGCAGAAGCGUUCACGUCGCAGCCCCUGUCAGAUUCUGGUGGAUCUGCGAAUUCUGCUGUAUAUCUC", "self-cleavage": 0.65}
{"variant": "UAACAGGGGGCCCGAGCAGAAGCGUUCACGUCGCAGCCCCUGUCAGAUUCUGGUGAAUCUGCGAAUUCUGCUGUAUAUCUC", "self-cleavage": 0.56}
